Measurements taken from patent US20050277575A1, “Therapeutic compositions and methods for treating diseases that involve angiogenesis” (priority 2004, published 2005).
Where “and” joins values, the source holds several entries; their conditions need not be identical. Equal values may be shown once. Read-outs that look alike come from different tables or passages of the source. One block for each compound: values may come before it. Where a SMILES comes first, the peptide text is derived from it.

How the values were obtained:
[1] = target: T1, S100A4 (Homo sapiens, UniProt P26447); test: Modulation of S100A4 dependent tPA-mediated conversion of plasminogen to plasmin by peptides and chimera; type: biochemical; settings: for IC50: peptides titrated 0.1-100 μM, 1 μM S100A4, read-out: IC50 for inhibition of accelerating effect of S100A4 on t-PA-dependent conversion of plasminogen to plasmin
T1 construct: GST (N); made in house; host or cells: E. coli ER2507
Description: (§1) The effects of peptide SEQ ID 6, peptide SEQ ID 38 and chimera SEQ ID 39 on acceleration oft-PA-mediated conversion of plasminogen to plasmin induced by S100A4 were measured. The kinetics of t-PA-mediated plasminogen activation were determined by measuring the amidolytic activity of plasmin formed during activation of plasminogen. All the experiments were done in 100 μl volume in 96-well plates in triplicates. Glu-plasminogen (Calbiochem) at the concentration of 100 nM was preincubated at 25° C. for 1 h in the presence or absence of 1 μM recombinant S100A4 in a buffer consisting of 50 mM Tris-HCl, pH 7.4, 100 mM NaCl and 5 mM CaCl2 or 5 mM EGTA. In some experiments, different concentrations of peptides or chimera were preincubated together with proteins. The reaction was initiated by addition of 5 nM t-PA (Calbiochem) and 125 μM chromogenic plasmin substrate, Chromozym PL (Roche). The reactions were monitored at 405 nm for 1.5 h in a SPECTRAmax PLUS^384 microplate spectrophotometer (Molecular Devices) under control of the SOFTmax PRO kinetic program (Molecular Devices). The initial rates of plasmin generation, during the first 10-15 min, were calculated using linear regression analysis of plots of A405 nm versus time 2. The initial rates of plasmin generation were reported in units (K) of A405 nm/min^2×10^3. […] The titration data were analyzed with the four-parameter logistic equation K=(A−D)/(1+(x/C)^B)D. If A, asymptotic minimum, =0, this equation is converted to the Michaelis-Menten equation K=D/(1+(C/[S])^B), where [S] is substrate concentration, D=Vmax, C=Km, and B is the Hill coefficient.
Peptides SEQ ID 6 and SEQ ID 38 inhibited the accelerating effect of S100A4 on t-PA-dependent conversion of plasminogen to plasmin in concentration—dependent manner.
On the other hand, chimera SEQ ID 39 additionally accelerated plasmin formation already accelerated by S100A4.

[2] = target: T1, S100A4; test: Fluorescence polarization assay of peptide binding with S100A4; settings: for change of fluorescence polarization upon adding S100A4: same procedure and conditions as for SEQ ID NO 7
Description: The following working buffers have been prepared:
TBS-EGTA: 10 mM TRIS buffer containing 150 mM NaCl, 0.05% bovine serum albumine (BSA), 1 mM EGTA
TBS-Ca: 10 mM TRIS buffer containing 150 mM NaCl, 0.05% bovine serum albumine (BSA), 1 mM CaCl2
10 mM solution of peptide SEQ ID NO 7 in DMSO was diluted with in either TBS-EGTA or TBS-Ca to obtain final peptide concentration 20 nM. Samples of these peptide solutions were placed in 384 well plate (Costar No. 3710), 45 microliters per well. Fluorescence polarization of such samples was determined using Perkin Elmer Wallac EnVision 2100 Multilabel Reader equipped with excitation filter 485 nm and emission filters 535 nm for each channel.
S100A4 has been diluted by either TBS-EGTA or by TBS-Ca to obtain a series of solutions of such concentrations that after adding 5 microliters each solution to 45 microliter peptide samples the final concentration of S100A4 was one of following: 0, 10, 30, 100, 300, 1000, 3000, or 10000 nM. Each sample was prepared in triplicate. The samples were mixed carefully while adding the protein to the peptide, and then they were incubated for 1 h at room temperature. The fluorescence polarization of the samples was determined using the same conditions as for the peptide samples before adding S100A4, and the change of fluorescence polarization of the peptide SEQ ID NO 7 upon adding S100A4 was calculated individually for each sample. The results, average of triplicates, are presentsd on the FIG. 6. The apparent binding constant of peptide SEQ ID NO 7 binding to S100A4 is 236 nM.
The same procedure and conditions have been applied to test binding of peptide SEQ ID NO 9, and peptide SEQ ID NO 10, to S100A4.

[3] = test system: Human cerebral endothelial cells (HCEC); test: Capillary tube formation in Matrigel, S100A4 induced angiogenesis; type: cell-based; settings: primary HCEC in Matrigel
Text: Human cerebral endothelial cells (HCEC) were isolated using previously described protocols (Stanimirovic, D., P. Morley, et al. (1996). “Angiotensin II-induced fluid phase endocytosis in human cerebromicrovascular endothelial cells is regulated by the inositol-phosphate signaling pathway.” J Cell Physiol 169(3): 455-67.). Purity of HCEC cultures generated by these procedures was routinely assessed by the immunocytochemical staining for Factor VIII-related antigen and the lack of staining for smooth muscle β-actin, and is estimated to be >95%. The morphological, phenotypic, biochemical and functional characteristics of these HCEC cultures have been described in detail previously (Muruganandam, A., L. M Herx, et al. (1997). “Development of immortalized human cerebromicrovascular endothelial cell line as an in vitro model of the human blood-brain barrier.” Faseb J 11(13): 1187-97).
HCEC were seeded (8×10^4 cells) on a semi-solid basement membrane matrix, Matrigel™ (Collaborative Biomedical Products, Bedford, Mass.)-coated 24-well plates and exposed to serum-free media containing various treatments. […] Confocal apertures for each recorded wavelength were adjusted to a full width half maximum of 20 μm. […] Eight to 32 individual optical sections were collected and the average was calculated. […]

[4] = target: T2, t-PA-mediated plasminogen activation (Homo sapiens, UniProt P00750); test: t-PA-dependent conversion of plasminogen to plasmin, effect of S100A4 (Example 11); type: biochemical; settings: with or without 2.5 μM S100A4; for Vmax: 150 nM plasminogen, 5 nM t-PA
T2 construct: purchased Calbiochem
Description: Non-active plasminogen can be converted to active protease plasmin by tissue type (t-PA) or urokinase type (u-PA) plasminogen activators. Except for its well-known fibrinolytic activity, plasmin also directly and indirectly, by activation of matrix metalloproteinases (MMPs), participates in the degradation of extracellular matrix that is important for the angiogenesis and tumor invasion. The kinetics of t-PA-mediated plasminogen activation was determined by measuring amidolytic activity of the plasmin generated during plasminogen activation. The reaction was performed with the plasmin substrate Chromozyme PL, tosyl-glycyl-prolyl-lysin-4-nitranilide-acetate (Roche) in the final concentration of 125 μM in a buffer consisting of 50 mM Tris-HCl, pH 7.4, 100 mM NaCl, 5 mM of CaCl2 or 5 mM of EGTA, and 150 nM of [Glu] plasminogen (Calbiochem). The reaction was preincubated with or without 2.5 μM S100A4 at 24 C° for 1 h in 96-well plates. The reaction was initiated by addition of t-PA (Calbiochem) up to 5 nM concentration, final volume 100 μl. Kinetic of substrate hydrolysis was measured at 2 min intervals at 405 nm in Spectramax Plus 384 spectrophotometer (Molecular Devices). Analysis of kinetics curves (Vmax, time to Vmax, and initial slope of kinetic data converted to A405 versus time^2) was performed with the help of Softmax PRO program (Molecular Devices).
Kinetics of plasminogen to plasmin conversion consists of three parts. As shown in FIG. #3 curves 1 and 2 for t-PA, during first 1500 s the reaction is second order that corresponds to conversion of plasminogen to plasmin and consequent cleavage of chromogenic substrate by plasmin. The second part of reaction is linear, for which Vmax can be calculated. It starts after total conversion of plasminogen to plasmin and corresponds to cleavage of chromogenic substrate by plasmin with constant rate. In the third part of reaction, after 2700 s, the reaction is slowing down that corresponds to depletion of chromogenic substrate and finally the reaction reaches a plateau when all substrate is cleaved. As follows from the comparison of curves 1 and 2, t-PA along converted plasminogen to plasmin equally efficiently in the presence or absence of calcium. Neither conversion of plasminogen to plasmin took place in the absence of t-PA no S110A4 induced such conversion by itself, curves 5 and 6. In the presence of S100A4 linear part of reaction starts substantially earlier, which means that total conversion of plasminogen to plasmin was accelerated. Kinetic parameters for t-PA along and for combination of t-PA with S100A4 are represented in Table 4. […] S100A4 accelerated conversion of plasminogen to plasmin in calcium independent manner, curves 3 and 4.

[5] = target: T2, t-PA-mediated plasminogen activation; test: t-PA-mediated plasminogen conversion kinetics with and without S100A4 (Example 12); type: biochemical
Description: as §1
The addition of S100A4 to basal reaction (t-PA plus plasminogen) produced a significant increase in the plasminogen conversion rate. […] The stimulation of the plasminogen conversion by S100A4 was concentration-dependent with the half-maximal effect at 2.4 μM.
The kinetic parameters of t-PA-mediated plasminogen conversion were evaluated in the presence and absence of S100A4 as a function of plasminogen concentrations ranging from 3 nM to 3 μM.

T1 sequence (P26447 whole entry): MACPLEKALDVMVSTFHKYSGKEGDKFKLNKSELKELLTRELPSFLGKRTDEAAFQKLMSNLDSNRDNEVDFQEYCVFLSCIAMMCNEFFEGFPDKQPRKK
T2 sequence (P00750 36-562): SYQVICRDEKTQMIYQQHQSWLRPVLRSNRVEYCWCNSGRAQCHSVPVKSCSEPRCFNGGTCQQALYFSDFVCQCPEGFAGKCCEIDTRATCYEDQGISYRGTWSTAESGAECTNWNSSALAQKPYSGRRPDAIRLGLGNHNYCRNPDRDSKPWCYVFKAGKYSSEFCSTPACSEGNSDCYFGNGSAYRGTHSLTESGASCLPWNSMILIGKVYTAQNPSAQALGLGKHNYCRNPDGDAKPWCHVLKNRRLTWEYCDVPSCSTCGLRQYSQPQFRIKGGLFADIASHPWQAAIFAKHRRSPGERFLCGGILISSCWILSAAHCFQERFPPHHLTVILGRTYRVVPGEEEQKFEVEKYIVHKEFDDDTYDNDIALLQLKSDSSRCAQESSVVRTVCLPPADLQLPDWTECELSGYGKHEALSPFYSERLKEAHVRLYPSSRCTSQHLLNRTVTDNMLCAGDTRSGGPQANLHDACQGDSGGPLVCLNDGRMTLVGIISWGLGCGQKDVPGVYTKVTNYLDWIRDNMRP

Kd ([2]; 20 nM peptide, S100A4 0-10000 nM, 1 h room temperature, TBS-EGTA or TBS-Ca, read-out: apparent binding constant of peptide binding to S100A4): 236 nM
Compound: CSCC[C@H](NC(=O)[C@H](Cc1ccc(O)cc1)NC(=O)[C@H](CO)NC(=O)[C@H](C)NC(=O)[C@H](CC(C)C)NC(=O)[C@H](CO)NC(=O)[C@H](C)NC(=O)CNC(=O)[C@H](Cc1ccc(O)cc1)NC(=O)[C@@H](NC(=O)[C@H](CCC(=O)O)NC(=O)[C@H](CCCNC(=N)N)NC(=O)[C@H](CC(C)C)NC(=O)CNC(=O)[C@H](C)NC(=O)c1ccc2c(c1)C(=O)OC21c2ccc(O)cc2Oc2cc(O)ccc21)C(C)C)C(=O)N[C@@H](CCC(=O)O)C(=O)N[C@@H](CCCNC(=N)N)C(=O)N[C@@H](Cc1c[nH]c2ccccc12)C(N)=O [SEQ ID NO 7, Fam-AGLREVYGASLASYMERW-amide] (HELM PEPTIDE1{[O=C1OC2(c3ccc(O)cc3Oc3cc(O)ccc32)c2ccc(C(=O)[*:2])cc21].A.G.L.R.E.V.Y.G.A.S.L.A.S.Y.M.E.R.W.[am]}$$$$V2.0)

effect on S100A4 acceleration at 15 μM peptide [1]: totally neglected the effect of S100A4
IC50 [1]: 6 µM
Compound: Ac-AGLREVYGASLASYMERW-NH2 [SEQ ID 6, Ac-AGLREVYGASLASYMERW-amide]
inhibition of S100A4-induced formation of capillary-like tubes [3]: completely inhibit

Second part, the compound before the results:

Compound: CSCC[C@@H](NC(=O)[C@@H](CCC(=O)O)NC(=O)[C@@H](CCCNC(=N)N)NC(=O)[C@@H](Cc1c[nH]c2ccccc12)NC(=O)CNC(=O)[C@@H](C)NC(C)=O)C(=O)N[C@H](Cc1ccc(O)cc1)C(=O)N[C@H](CO)C(=O)N[C@H](C)C(=O)N[C@H](CC(C)C)C(=O)N[C@H](CO)C(=O)N[C@@H](C)C(=O)N[C@@H](CO)C(=O)N[C@H](Cc1ccc(O)cc1)C(=O)N[C@@H](C(=O)N[C@H](CCC(=O)O)C(=O)N[C@H](CCCNC(=N)N)C(=O)N[C@H](CC(C)C)C(N)=O)C(C)C [SEQ ID 38, Ac-aGwremysalsASyverl-amide] (HELM PEPTIDE1{[ac].[dA].G.[dW].[dR].[dE].[dM].[dY].[dS].[dA].[dL].[dS].A.S.[dY].[dV].[dE].[dR].[dL].[am]}$$$$V2.0)
effect on S100A4 acceleration at 15 μM peptide [1]: totally neglected the effect of S100A4
IC50 [1]: 3.5 µM

Compound: Fam-aGlrevyGASlASymerw-amide [SEQ ID NO 9]
change of fluorescence polarization upon adding S100A4 [2]: No change of fluorescence polarization has been detected

Compound: Fam-aGwremysalsASyverl-amide [SEQ ID NO 10]
change of fluorescence polarization upon adding S100A4 [2]: No change of fluorescence polarization has been detected

Compound: t-PA: tissue type plasminogen activator (Calbiochem); basal reaction with plasminogen
Vmax ([4]; Ca (5 mM CaCl2)): 7.152 ± 0.130 ΔA405/t(min) * 1000
Slope (initial rate of plasmin generation) ([4]; Ca (5 mM CaCl2)): 0.078 ΔA405/t^2(min^2) * 1000 and 0.078 ± 0.007 ΔA405/t^2(min^2) * 1000
Time to Vmax ([4]; Ca (5 mM CaCl2)): 2200 s and 2200 ± 69 s
Vmax ([4]; EGTA (5 mM)): 8.589 ± 0.342 ΔA405/t(min) * 1000
Slope (initial rate of plasmin generation) ([4]; EGTA (5 mM)): 0.080 ± 0.008 ΔA405/t^2(min^2) * 1000
Time to Vmax ([4]; EGTA (5 mM)): 2102 ± 69 s
Vmax ([5]; plasminogen 3 nM to 3 μM, presence of EGTA): 1.18
Km ([5]; plasminogen 3 nM to 3 μM, presence of EGTA, read-out: Km): 429 nM
Km ([5]; plasminogen 3 nM to 3 μM, read-out: Km of the t-PA-mediated plasminogen conversion): 429 nM
Increase in t-PA activity ([5]; presence of EGTA): 1
